PMC10907165, “Discovery and structural characterization of the D-box, a conserved TonB motif that couples an inner-membrane motor to outer-membrane transport” (The Journal of Biological Chemistry, 2024)
Ends that are not written are not given here.

B1: D-box peptide (residues 43 to 54 of E. coli TonB) (peptide)
peptide: QPISVTMVTPAD
notes: TonB, E. coli, residues 43-54, holds the D-box motif; The description of the crystal structure numbers the peptide Gln-55 to Thr-63, that is 12 higher than the TonB numbers; also called TonB D-box peptide; source: synthetic peptide (VWR Scientific)
B2: AF488-labeled D-box peptide (QPISVTMVTPADC) (peptide)
peptide: QPISVTMVTPADC(AF488 maleimide)
notes: TonB, E. coli, residues 43-54 (D-box peptide); cysteine added at the C-terminus for labelling with the maleimide dye; not a TonB residue; also called fluorescently labeled D-box peptide; fluorophore-labeled D-box peptide; source: synthetic peptide (Biomatik Corporation), labelled with AF488-maleimide, purified on a C18 column
B3: ExbD periplasmic domain (E. coli ExbD residues 59-141) (domain or fragment)
chain: GRPEKPVYLSVKADNSMFIGNDPVTDETMITALNALTEGKKDTTIFFRADKTVDYETLMKVMDTLHQAGYLKIGLVGEETAKAK
notes: single glycine residue left upstream of Arg-59 after proteolytic removal of the SUMO tag; ExbD, E. coli, periplasmic domain, residues 59-141 (begins at Arg-59); codon-optimised synthetic gene in pETHSUL; the methods and legends say 59-141; Two copies of this domain hold one D-box peptide in the crystals and by ITC; also called ExbD_(59-141); ExbD C-terminal periplasmic domain; source: E. coli …

Experiments:
[1] = target: B3; experiment: ITC; D-box peptide (1 mM) injected into 100 uM ExbD protein at 288 K; 10 mM MES pH 5.3, 60 mM NaCl; two-state binding model; conditions: both partners purified
[2] = target: B3; experiment: fluorescence polarisation; fluorescence anisotropy; 100 nM AF488-labeled peptide, ExbD protein varied; 40 mM Tris pH 8.0, 150 mM NaCl; room temperature; conditions: both partners purified
[3] = target: the molecule itself; experiment: crystal structure; ExbD periplasmic domain mixed with the D-box peptide; crystals from ammonium sulfate; orthorhombic and tetragonal forms, about 1.4 A

Binder: B1
- Kd [1]: 19 ± 1 µM
- stoichiometry N [1]: 0.5 D-box peptide per ExbD

Binder: B2
- Kd [2]: 45 ± 9 µM

Binder: B3
- binding result [3]: binds
